According to patent US20180291110A1 (Hoffmann-La Roche, published 2018):
Where a chain is given by its changes, count along the chain named. Names and notes keep the numbering of the source.

B1: Pertuzumab HC x Pertuzumab (Tras.L3) G32A LC (antibody, V domains shown)
VH: EVQLVESGGGLVQPGGSLRLSCAASGFTFTDYTMDWVRQAPGKGLEWVADVNPNSGGSIYNQRFKGRFTLSVDRSKNTLYLQMNSLRAEDTAVYYCARNLGPSFYFDYWGQGTLVTVSS
VL: DIQMTQSPSSLSASVGDRVTITCKASQDVSIAVAWYQQKPGKAPKLLIYSASYRYTGVPSRFSGSGSGTDFTLTISSLQPEDFATYYCQQHYTTPPTFGQGTKVEIK
B2: Pertuzumab HC x Pertuzumab (Tras.L3) K24R LC (antibody, V domains shown)
VH: B1 VH
VL: B1 VL with K24R, A32G
B3: Trastuzumab HC x Pertuzumab (Tras.L3) G66R LC (antibody, V domains shown)
VH: not shown
VL: B1 VL with A32G, G66R
B4: Pertuzumab HC x Pertuzumab (Tras.L3) I31V LC (antibody, V domains shown)
VH: B1 VH
VL: B1 VL with I31V, A32G
B5: Trastuzumab HC x Pertuzumab (Tras.L3) I31T LC (antibody, V domains shown)
VH: not shown
VL: B1 VL with I31T, A32G
B6: Pertuzumab HC x Pertuzumab (Tras.L3) S30N LC (antibody, V domains shown)
VH: B1 VH
VL: B1 VL with S30N, A32G
B7: Trastuzumab HC x Pertuzumab (Tras.L3) K24R LC (antibody, V domains shown)
VH: not shown
VL: B1 VL with K24R, A32G
B8: Pertuzumab HC x Pertuzumab (Tras.L3) Y53F LC (antibody, V domains shown)
VH: B1 VH
VL: B1 VL with A32G, Y53F
B9: Pertuzumab HC x Pertuzumab (Tras.L3) I31T LC (antibody, V domains shown)
VH: B1 VH
VL: B1 VL with I31T, A32G
B10: Pertuzumab HC x Pertuzumab (Tras.L3) T94Y LC (antibody, V domains shown)
VH: B1 VH
VL: B1 VL with A32G, T94Y
B11: Pertuzumab HC x Pertuzumab (Tras.L3) T56S LC (antibody, V domains shown)
VH: B1 VH
VL: B1 VL with A32G, T56S
B12: Trastuzumab HC x Pertuzumab (Tras.L3) I31V LC (antibody, V domains shown)
VH: not shown
VL: B1 VL with I31V, A32G
B13: Pertuzumab HC x Pertuzumab (Tras.L3) R54L LC (antibody, V domains shown)
VH: B1 VH
VL: B1 VL with A32G, R54L
B14: Pertuzumab HC x Pertuzumab (Tras.L3) G66R LC (antibody, V domains shown)
VH: B1 VH
VL: B1 VL with A32G, G66R
B15: Pertuzumab HC x Pertuzumab (Tras.L3) P96Y LC (antibody, V domains shown)
VH: B1 VH
VL: B1 VL with A32G, P96Y
B16: Trastuzumab HC x Pertuzumab (Tras.L3) G32A LC (antibody, V domains shown)
VH: not shown
VL: B1 VL

What follows are binders tested against T1, Her2 ECD (amino acids 1 to 629 of matured HER2 with C-terminal avi-tag and His-tag) (human, UniProt P04626 23-652) (assay: SPR, Ab captured, Her2 analyte;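 also: ProteOn XPR36 SPR, rate constants from simultaneous fit of association and dissociation sensorgrams to a 1:1 Langmuir model, buffer-channel referenced, KD taken as koff/kon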).
T1 construct: also called purified Her2
B1 gave a Kd of 3.66 nM, a koff of 0.00187 s⁻¹ and a kon of 511000 M⁻¹ s⁻¹.
In the case of B2, the Kd is reported as 4.62 nM, the koff is reported as 0.00211 s⁻¹ and the kon is reported as 457000 M⁻¹ s⁻¹.
Work on B3 yielded a Kd of 10.9 nM, a koff of 0.00558 s⁻¹ and a kon of 514000 M⁻¹ s⁻¹.
Binder B4 has a Kd of 4.35 nM, a koff of 0.00192 s⁻¹ and a kon of 440000 M⁻¹ s⁻¹.
B5 was tested, and the Kd was 7.21 nM, the koff was 0.00341 s⁻¹ and the kon was 473000 M⁻¹ s⁻¹.
B6 was tested, and the Kd was 3.4 nM, the koff was 0.0018 s⁻¹ and the kon was 530000 M⁻¹ s⁻¹.
Binder B7 has a Kd of 66.8 nM, a koff of 0.0252 s⁻¹ and a kon of 377000 M⁻¹ s⁻¹.
For B8, the Kd was 8.03 nM, the koff was 0.00254 s⁻¹ and the kon was 316000 M⁻¹ s⁻¹.
B9 gave a Kd of 4.06 nM, a koff of 0.00175 s⁻¹ and a kon of 431000 M⁻¹ s⁻¹.
B10 was tested, and the Kd was 0.782 nM, the koff was 0.00063 s⁻¹ and the kon was 805000 M⁻¹ s⁻¹.
B11 gave a Kd of 5.52 nM, a koff of 0.00245 s⁻¹ and a kon of 443000 M⁻¹ s⁻¹.
B12 showed a Kd of 28 nM, a koff of 0.0116 s⁻¹ and a kon of 413000 M⁻¹ s⁻¹.
In the case of B13, the Kd is reported as 4.87 nM, the koff is reported as 0.00226 s⁻¹ and the kon is reported as 464000 M⁻¹ s⁻¹.
With B14 the Kd was 6.91 nM, the koff was 0.00247 s⁻¹ and the kon was 358000 M⁻¹ s⁻¹.
B15 showed a Kd of 2.82 nM, a koff of 0.00097 s⁻¹ and a kon of 344000 M⁻¹ s⁻¹.
In the case of B16, the Kd is reported as 3.97 nM, the koff is reported as 0.00268 s⁻¹ and the kon is reported as 675000 M⁻¹ s⁻¹.
